Test results: the RNAGym collection of RNA variant scans (doi:10.1073/pnas.2313332121)
Variants at the floor of the assay were thinned out.

B1: TPR 5TU (parent)
chain: GGAUCUUCUCGAUCUAACAAAAAAGACAAAUCUGCCACAAAGCUUGAGAGCAUCUUCGGAUGCAGAGGCGGCAGCCUUCGGUGGCGCGAUAGCGCCAACGUUCUCAACUAUGACACGCAAAACGCGUGCUCCGUUGAAUGGAGUUUAUCAUG

Variants of: B1
Experiment: polymerase ribozyme fitness, log enrichment relative to wild type (log ratio); higher = more active; in vitro selection for triplet polymerase activity
Method in brief: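 Fitness measures genotype enrichment against wild-type enrichment on a logarithmic scale, with inverse-variance-weighted averaging of replicates. The logarithm is base 2, and genotypes were kept only with ≥10 input reads and ≥1 read per output in Illumina sequencing. The sequenced libraries came from one triplicate in vitro selection round, including frozen incubation at −7 °C, of PCR-built, transcribed mutant libraries of each subunit of a heterodimeric triplet polymerase ribozyme.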

Variant	polymerase ribozyme fitness (log ratio)
G133U U135G	-4.04
G136C U146C	-2.93
U134A A142G U144G	-2.83
C132U U139G G140A	1.22
A137U U145A A147C	≤ -4.2
G152C	-2.58
G152U	-2.19
G152A	-1.77
G140U G141C	-3.07
C149U A150G	-2.95
U134C U144G	0.895
G136U G143C	-3.26
U144C U145C	-0.39
U135G A137U U139A U151G	≤ -4.2
C131G G133U	-3.77
A147C	0.176
A147U	1.1
A147G	-0.913
G141C G143C	≤ -4.2
C131A A138C U139G	-3.67

Variant	polymerase ribozyme fitness (log ratio)
U135A	-0.939
U135G	-3.19
U135C	-1.38
G141U U146A	0.37
G143A	-0.315
G143C	-1.78
G143U	-1.84
U134C	0.0692
U134G	-2.37
U134A	-2.25
A138C A142G	-3.66
G140U U144C	-3.28
U135C U151A	≤ -4.2
C131U U148C	-2.73
G133U U148G	-4.1
U135C U145C	-2.51
A137U U144G	-4.2
A138C U144G	-3.7
U146C A150U	0.851
G140A G141A	-3.15

Variant	polymerase ribozyme fitness (log ratio)
G133C U144C C149U	-3.98
U144A	-0.043
U144G	0.948
U144C	0.0778
A137G G141C	-2.74
C132G G133U	-2.9
G140C U144G	-3.51
U144A U145A	-0.541
U134A G140A	-3.58
U130G	-2.99
A147U U148A	-2.81
G141A A147C	-3.63
C132U U145G	-0.815
U139G C149G	-3.88
U146C U151G	≤ -4.2
G143U G152A	-3.69
G143A U145A	-2.03
G143C U146A	-3.65
G133U U135A U139G U144G A150U	-4.1
